The values below come from article PMC6076860 (Analytical biochemistry, 2018).

The data set concerns the molecule itself. Kind of data set: SEC.

B1: PCD αβ dimer (protomer of the protocatechuate 3,4-dioxygenase holoenzyme complex) from Pseudomonas putida (complex)
chain 1: MPIELLPETPSQTAGPYVHIGLALEAAGNPTRDQEIWNRLAKPDAPGEHILLLGQVYDGNGHLVRDSFLEVWQADANGEYQDAYNLENAFNSFGRTATTFDAGEWTLHTVKPGVVNNAAGVPMAPHINISLFARGINIHLHTRLYFDDEAQANAKCPVLNLIEQPQRRETLIAKRCEVDGKTAYRFDIRIQGEGETVFFDF
chain 2: MPAQDNSRFVIRDRNWHPKALTPDYKTSIARSPRQALVSIPQSISETTGPNFSHLGFGAHDHDLLLNFNNGGLPIGERIIVAGRVVDQYGKPVPNTLVEMWQANAGGRYRHKNDRYLAPLDPNFGGVGRCLTDSDGYYSFRTIKPGPYPWRNGPNDWRPAHIHFGISGPSIATKLITQLYFEGDPLIPMCPIVKSIANPEAVQQLIAKLDMNNANPMDCLAYRFDIVLRGQRKTHFENC
B1: the binding result was “binds”.
